Measured values published in patent publication US20230041822A1 (Molecular Partners, published 2023).
Numbering of substitutions follows the chain as printed.

Columns and labels:
[1] = target: T1, HBVc18 peptide-MHC complex (HBVc18pMHC), biotinylated recombinant tripartite complex of HLA-A*0201, human … (human; hepatitis B virus); experiment: SPR (ProteOn), biotinylated HBVc18pMHC on NLC chip, ankyrin repeat protein injected, PBST
T1 construct: also called HLA-A*0201: HBc18; target peptide-MHC complex
Procedure: (§1) Briefly, biotinylated HBVc18pMHC were diluted in PBST (PBS, pH 7.4 containing 0.005% Tween 20®) and coated on a NLC chip (BioRad) to a level of around 1000 resonance units (RU). […] No target regeneration was performed. The signals (i.e. resonance unit (RU) values) of the interspots were subtracted from the RU traces obtained after injection of ankyrin repeat protein. Based on the SPR traces obtained from the on-rate and off-rate measurements, the on- and off-rates of the corresponding ankyrin repeat proteins towards the pMHC complexes were determined.
Dissociation constants (KD) were calculated from the estimated on- and off-rates using standard procedures known to the person skilled in the art.

[2] = target: T1, HBVc18 peptide-MHC complex …; experiment: SPR (ProteOn), biotinylated HBVc18pMHC on the NLC chip, DARPin protein injected, multi-trace fit
Procedure: (§2) The binding affinities of the purified ankyrin repeat proteins on the HBVc18pMHC target were analyzed using a ProteOn Surface Plasmon Resonance (SPR) instrument (BioRad) and the measurement was performed according standard procedures known to the person skilled in the art.
as §1

[3] = target: T1, HBVc18 peptide-MHC complex …; experiment: SPR (ProteOn), biotinylated HBVc18pMHC on the NLC chip, DARPin protein injected, multi-trace fit [continued) D]
Procedure: as §2, §1

[4] = target: T1, HBVc18 peptide-MHC complex …; experiment: SPR (ProteOn), biotinylated HBVc18pMHC on the NLC chip, DARPin protein injected, multi-trace fit [continued) H]
Procedure: as §2, §1

[5] = target: T1, HBVc18 peptide-MHC complex …; experiment: SPR (ProteOn), biotinylated HBVc18pMHC on the NLC chip, DARPin protein injected, multi-trace fit [continued) I]
Procedure: as §2, §1

[6] = target: T1, HBVc18 peptide-MHC complex …; experiment: SPR (ProteOn), biotinylated HBVc18pMHC on the NLC chip, DARPin protein injected, multi-trace fit [continued) E]
Procedure: as §2, §1

[7] = target: T1, HBVc18 peptide-MHC complex …; experiment: SPR (ProteOn), biotinylated HBVc18pMHC on the NLC chip, DARPin protein injected, multi-trace fit [continued) F]
Procedure: as §2, §1

[8] = target: T1, HBVc18 peptide-MHC complex …; experiment: SPR (ProteOn), biotinylated HBVc18pMHC on the NLC chip, DARPin protein injected, multi-trace fit; remark: listed apart in the source
Procedure: as §2, §1

[9] = target: T1, HBVc18 peptide-MHC complex …; experiment: SPR (ProteOn), biotinylated HBVc18pMHC on the NLC chip, DARPin protein injected, multi-trace fit [continued) G]
Procedure: as §2, §1

[10] = target: T1, HBVc18 peptide-MHC complex …; experiment: SPR (ProteOn), biotinylated HBVc18pMHC on the NLC chip, DARPin protein injected, multi-trace fit [continued) J]
Procedure: as §2, §1

[11] = target: T1, HBVc18 peptide-MHC complex …; experiment: SPR (ProteOn), biotinylated HBVc18pMHC on the NLC chip, DARPin protein injected, multi-trace fit; remark: listed apart in the source
Procedure: as §2, §1

B1: TCE DARPin® protein #16 (designed binder, not shown: small tags and cut ends)
chain: GSDLGHKLLFAASAGQDDEVRILLAAGADVNAKDESGQTPLHYAAFVGHLEIVEVLLKAGADVNAKDQWGHTPLHVAATFGHLEIVEVLLKAGADVNAQDTWGTTPADLAATFGHEDIAEVLQKAA
With B1 the Kd [1] was 4.65 nM, the koff [2] was 0.000307 s⁻¹ and the kon [2] was 66100 M⁻¹ s⁻¹.

B2: TCE DARPin® protein #20 (designed binder, not shown: small tags and cut ends)
chain: B1 chain with H6F, F10E, S13L, A14E
In the case of B2, the Kd [1] is reported as 0.736 nM, the koff [3] is reported as 3.26e-05 s⁻¹ and the kon [3] is reported as 44300 M⁻¹ s⁻¹.

B3: TCE DARPin® protein #24 (designed binder, not shown: small tags and cut ends)
chain: B1 chain with H6W, F10H, S13T, A14T
With B3 the Kd [1] was 4.72 nM, the koff [4] was 0.000288 s⁻¹ and the kon [4] was 61100 M⁻¹ s⁻¹.

B4: TCE DARPin® protein #25 (designed binder, not shown: small tags and cut ends)
chain: B1 chain with H6S, F10Y, S13I, A14S, E120V
With B4 the Kd [1] was 1.03 nM, the koff [5] was 3.17e-05 s⁻¹ and the kon [5] was 30800 M⁻¹ s⁻¹.

B5: TCE DARPin® protein #21 (designed binder, not shown: small tags and cut ends)
chain: GSDLGIKLLFAANFGQDDEVRILLAAGADVNAKDQSGRTPLHLAALWGHLEIVEVLLKAGADVNAKDVFGLTPLHIAATFGHLEIVEVLLKAGVDVNAQDYTGHTPADLAALIGHEDIAEVLQKAA
For B5, the Kd [1] was 9.23 nM, the koff [6] was 0.00106 s⁻¹ and the kon [6] was 115000 M⁻¹ s⁻¹.

B6: TCE DARPin® protein #22 (designed binder, not shown: small tags and cut ends)
chain: GSDLGKKLLSAAQSGQDDEVRILLGAGADVNAKDKWGHTPLHLAAVKGHLEIAEVLLKAGADVNAKDEWGSTPLHLAASQGHLEIVEVLLKAGADVNAKDKKGATPLHLAALVGHLEIVEVLLKAVADVNAQDKSGKTPADLAARAGHQDIAEVLQKAA
B6 was tested, and the Kd [1] was 13.8 nM, the koff [7] was 0.0115 s⁻¹ and the kon [7] was 833000 M⁻¹ s⁻¹.

B7: TCE DARPin® protein #18 (designed binder, not shown: small tags and cut ends)
chain: GSDLGYKLLTAAIVGQDDEVRILLAAGADVNAKDQSGLTPLHLAAAYGHLEIVEVLLKAGADVNAKDKHGRTPLHLAALEGHLEIVEVLLKAGADVNAQDQFGITPADLAAAVGHEDIAEVLQKAA
With B7 the Kd [1] was 7.15 nM, the koff [8] was 0.00218 s⁻¹ and the kon [8] was 305000 M⁻¹ s⁻¹.

B8: TCE DARPin® protein #23 (designed binder, not shown: small tags and cut ends)
chain: B7 chain with Y6Q
B8 gave a Kd [1] of 7.1 nM, a koff [9] of 0.00274 s⁻¹ and a kon [9] of 387000 M⁻¹ s⁻¹.

B9: TCE DARPin® protein #26 (designed binder, not shown: small tags and cut ends)
chain: GSDLGKKLLQAARAGQLDEVHELLKAGADVNAKDQHGKTPMHLAAQIGHLEIVEVLLKAGADVNAKDHIGWTPLHLAASVGHLEIVEVLLKAGADVNAKDQEGWTPLHVAAQLGHLEIVEVLLKAGADVNAQDKSGKTPADLAARAGHQDSAEVLQKAA
B9 showed a Kd [1] of 9.33 nM, a koff [10] of 0.000812 s⁻¹ and a kon [10] of 87000 M⁻¹ s⁻¹.

B10: TCE DARPin® protein #17 (designed binder, not shown: small tags and cut ends)
chain: GSDLGQKLLLAAAIGQDDEVRILLAAGADVNAKDESGHTPLHYAAHVGHLEIVEVLLKAGDVNAKDHRGFTPLHVAAQIGHLEIVEVLLKAGADVNAQDNWGITPADLAAWWGHEDIAEVLQKAA
Work on B10 yielded a Kd [1] of 0.369 nM, a koff [11] of 6.24e-06 s⁻¹ and a kon [11] of 16900 M⁻¹ s⁻¹.
